What was measured:
[1] = Ultrafiltration of PAEC; particle recovery by light scattering, free SDS by HPLC-ELSD; format: physicochemical; settings: filtrate fraction of ultrafiltration
Experimental: The fraction of SDS under a free form, i.e. not associated to the PAECs, was determined on the following composition: P24/CpG/SDS/DA002: 200/80/200/350 μg/mL. This analysis was done after separation of the PAECs from free SDS, using ultrafiltration. The free SDS concentration in the permeate fraction was then determined by HPLC using an AZorbax 80A Extend-C18 column. 3.0×150 mm, 3.5 μm from Agilent and an Evaporative Light Scattering Detector (ELSD) Alltech® Model 3300.
Particle recovery has been estimated from the mean light scattering of the permeate fraction of ultrafiltration. The particle recovery percentage was measured as the mean and SD of light scattering count rate of 3 measurements; the SDS recovery percentage was measured as mean and SD of 2 HPLC analysis.

[2] = Circular dichroism, % helix in human insulin on storage at 4° C.; format: physicochemical
Experimental: From these CD spectra we have calculated the % of helix in human insulin overtime of storage at 4° C. on 12-day period. […] The CD spectra were taken […].
The CD analysis was carried out after storing the PAEC for 1, 6 or 12 days at 4° C.

| Compound | SDS recovery (wt %) ([1]; 2 HPLC analysis) | Particle recovery (Id %) ([1]; mean and SD of 3 measurements) | percentage helix content in human insulin, Day 1 ([2]; stored 1 day at 4° C.) [%] | percentage helix content in human insulin, Day 6 ([2]; stored 6 days at 4° C.) [%] | percentage helix content in human insulin, Day 12 ([2]; stored 12 days at 4° C.) [%] |
| --- | --- | --- | --- | --- | --- |
| CCCCCCCCCCCCOS(=O)(=O)[O-].[Na+] [Free SDS, sodium dodecyl sulphate] | 100.0 | 0.78 ± 0.07 | – | – | – |
| Human Insulin: free human insulin, small globular protein, Mw 5808 Da | – | – | 14.6 | 37.4 | 36.9 |
